Measured values as given in PMC3800664.

Key:
[1] = target: glutathione S-transferase (GST); assay: cross-linking; total protein extracts of E. coli treated with BS3 or glutaraldehyde, western blot with anti-GST antibody; control without cross-linking agent
[2] = target: GST-TKJMΔ (intracellular domain of the EGFR lacking the first 13 amino acids of the juxtamembrane region, fused to glutathione S-transferase); assay: as above

Sequence of glutathione S-transferase (GST) (P08515 2-218): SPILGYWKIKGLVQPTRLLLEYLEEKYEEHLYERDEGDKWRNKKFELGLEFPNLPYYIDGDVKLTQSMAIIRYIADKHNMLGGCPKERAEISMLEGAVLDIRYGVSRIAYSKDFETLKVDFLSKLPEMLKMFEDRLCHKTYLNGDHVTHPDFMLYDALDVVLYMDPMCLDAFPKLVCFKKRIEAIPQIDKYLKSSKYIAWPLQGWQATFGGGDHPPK

stoichiometry N [1]	stoichiometry N [2]	Substance
2		glutathione S-transferase (GST) (natural protein)
	2	GST-TKJMΔ (intracellular domain of the EGFR lacking the first 13 amino acids of the juxtamembrane region, fused to glutathione S-transferase) (domain or fragment)
